Ends that are not written are not given here.
Assays:
[1] = target: GAD-Sml1 two-hybrid fusion (plasmid pWJ684, pACTII) (Saccharomyces cerevisiae (yeast)) (UniProt Q04964); assay: cell-based or functional assay
[2] = target: T1, GAD-SML1 (Saccharomyces cerevisiae, UniProt Q04964); assay: yeast two-hybrid assay against GAD-SML1; type: cell-based; parameters: key to HIS3 reporter / ADE2 reporter: + signifies growth on histidine-less and adenine-less media; +/− signifies constructs unable to grow on adenine-less medium but able to give rise to white colonies on YPD medium
T1 construct: expressed in transfected cells; host or cells: S. cerevisiae two-hybrid strain PJ69-4A
T1 sequence (Q04964 1-104): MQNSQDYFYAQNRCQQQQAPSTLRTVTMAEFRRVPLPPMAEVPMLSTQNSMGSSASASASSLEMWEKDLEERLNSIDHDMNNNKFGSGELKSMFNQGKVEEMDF
Description: (§1) The strains and plasmids for two-hybrid analysis were PJ69-4A, pGBD-C2, pGAD-C2 (James et al., 1996) and pACTII (CLONTECH® Inc.). The primer pair pB-SML1 5′ (SEQ ID NO: 11) and pGBD-SML1 3′ (SEQ ID NO: 13) (Table 4) was used to amplify the SML1 ORF. After digestion with BamHI and PstI, this PCR product was cloned into the BamHI-PstI sites of pGBD-C2 to construct plasmid pWJ728. Similarly, plasmid pWJ684 contains a BamHI fragment from the PCR product of the SML1 ORF generated using the primer pair pB-SML1 5′ and pB-SML1 3′ (SEQ ID NO: 12) (Table 4) and inserted at the BamHI site of pACTII. PCR fragments containing the RNR1 or the RNR2 ORF were generated by primer pairs RNR1-ORF 5′ (SEQ ID NO: 14) and RNR1 3′ (SEQ ID NO: 15) or RNR2-ORF 5′ (SEQ ID NO: 17) and RNR2 3′ (SEQ ID NO: 16) (Table 4). These fragments were cloned into the BamHI-PstI site of pGBD-C2 and pGAD-C2 to construct pWJ731 and pWJ745 or pWJ729 and pWJ746 respectively.
(§2) The GAL1-HIS3 reporter was assayed on SC-HIS-LEU-TRP medium plus 1-2 mM 3-aminotriazole. The GAL2-ADE2 reporter was assayed on SC-ADE-LEU-TRP medium.

[3] = target: T2, GAD-RNR2 (Saccharomyces cerevisiae, UniProt P09938); assay: yeast two-hybrid assay against GAD-RNR2; type: cell-based; parameters: key to HIS3 reporter / ADE2 reporter: + signifies growth on histidine-less and adenine-less media; +/− signifies constructs unable to grow on adenine-less medium but able to give rise to white colonies on YPD medium
T2 construct: expressed in transfected cells; host or cells: S. cerevisiae two-hybrid strain PJ69-4A
T2 sequence (P09938 1-399): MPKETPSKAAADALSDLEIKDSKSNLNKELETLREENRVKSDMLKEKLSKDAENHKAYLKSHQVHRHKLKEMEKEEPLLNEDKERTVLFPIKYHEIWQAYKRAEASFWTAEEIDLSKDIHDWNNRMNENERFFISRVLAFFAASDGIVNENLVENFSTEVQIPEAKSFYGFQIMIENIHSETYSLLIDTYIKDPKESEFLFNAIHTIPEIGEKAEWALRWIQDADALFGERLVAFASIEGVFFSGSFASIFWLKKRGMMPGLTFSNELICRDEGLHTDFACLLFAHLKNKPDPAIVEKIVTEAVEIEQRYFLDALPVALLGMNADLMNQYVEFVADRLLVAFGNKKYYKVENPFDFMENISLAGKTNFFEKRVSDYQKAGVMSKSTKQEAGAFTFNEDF
Description: as §1, §2

[4] = target: T3, GAD (Saccharomyces cerevisiae, UniProt P04386); assay: yeast two-hybrid assay against GAD alone; type: cell-based
T3 construct: expressed in transfected cells; host or cells: S. cerevisiae two-hybrid strain PJ69-4A
T3 sequence (P04386 768-881 limits assumed): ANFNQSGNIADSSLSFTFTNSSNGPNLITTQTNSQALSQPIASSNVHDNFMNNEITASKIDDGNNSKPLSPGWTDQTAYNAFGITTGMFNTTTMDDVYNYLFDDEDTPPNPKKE
Description: as §1, §2

[5] = target: T4, Recombinant yeast Rnr1 protein (large subunit of ribonucleotide reductase) (yeast (Saccharomyces cerevisiae), UniProt P21524 1-888); assay: cell-based or functional assay
T4 sequence (looked up): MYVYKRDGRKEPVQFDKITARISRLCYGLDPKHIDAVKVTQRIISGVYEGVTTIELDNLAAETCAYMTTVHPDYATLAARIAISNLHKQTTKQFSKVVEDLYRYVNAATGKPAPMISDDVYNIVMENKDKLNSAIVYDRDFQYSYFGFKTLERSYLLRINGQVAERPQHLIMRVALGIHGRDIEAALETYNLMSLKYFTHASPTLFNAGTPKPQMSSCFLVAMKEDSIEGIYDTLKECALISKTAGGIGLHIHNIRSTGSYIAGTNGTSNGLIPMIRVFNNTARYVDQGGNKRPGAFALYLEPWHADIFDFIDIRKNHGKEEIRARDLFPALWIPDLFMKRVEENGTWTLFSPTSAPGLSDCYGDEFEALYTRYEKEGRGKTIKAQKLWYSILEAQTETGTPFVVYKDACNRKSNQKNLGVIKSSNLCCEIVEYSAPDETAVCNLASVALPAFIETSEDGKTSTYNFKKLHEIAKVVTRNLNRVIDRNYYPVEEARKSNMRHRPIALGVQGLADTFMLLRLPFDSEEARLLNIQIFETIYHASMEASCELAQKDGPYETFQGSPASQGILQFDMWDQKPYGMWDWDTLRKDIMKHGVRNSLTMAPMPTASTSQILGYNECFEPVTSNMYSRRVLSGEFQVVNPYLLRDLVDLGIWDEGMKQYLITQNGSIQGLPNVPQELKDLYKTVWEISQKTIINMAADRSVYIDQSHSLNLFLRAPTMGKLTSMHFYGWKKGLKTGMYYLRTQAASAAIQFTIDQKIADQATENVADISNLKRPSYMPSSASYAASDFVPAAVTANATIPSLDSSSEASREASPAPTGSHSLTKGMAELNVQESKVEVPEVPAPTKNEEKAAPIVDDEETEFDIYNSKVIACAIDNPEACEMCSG

[6] = target: T5, GAD-RNR1 (Saccharomyces cerevisiae, UniProt P21524); assay: yeast two-hybrid assay against GAD-RNR1; type: cell-based; parameters: key to HIS3 reporter / ADE2 reporter: + signifies growth on histidine-less and adenine-less media; +/− signifies constructs unable to grow on adenine-less medium but able to give rise to white colonies on YPD medium
T5 construct: expressed in transfected cells; host or cells: S. cerevisiae two-hybrid strain PJ69-4A
T5 sequence (P21524 1-888): T4 sequence (looked up)
Description: as §1, §2

[7] = target: T6, GAD-Sml1 two-hybrid fusion (plasmid pWJ684, pACTII) (Saccharomyces cerevisiae (yeast), UniProt Q04964 1-104); assay: cell-based or functional assay
T6 sequence: T1 sequence (Q04964 1-104)

[8] = target: T7, GAD-Rnr1 two-hybrid fusion (plasmid pWJ745) (yeast (Saccharomyces cerevisiae), UniProt P21524 1-888); assay: cell-based or functional assay
T7 sequence (looked up): T4 sequence (looked up)

[9] = target: T8, GAD (Gal4 activation domain alone, empty vector control) (UniProt P04386 768-881); assay: cell-based or functional assay
T8 sequence (looked up): T3 sequence (P04386 768-881 limits assumed)

[10] = SC-HIS-LEU-TRP plus 3-aminotriazole

For “GBD vector (Gal4 DNA binding domain alone, empty vector control) (from UniProt P04386 1-147)”, the two-hybrid LacZ activity [1] was 0.4 Miller Units.

With “RNR2: GBD (Gal4 DNA binding domain) fusion of the RNR2 ORF in pGBD-C2, two-hybrid construct (GAFTFNEDF)” the LacZ activity [2] was 0.9 ± 0.4 Miller Units, the LacZ activity [3] was 2.3 ± 0.4 Miller Units and the ADE2 reporter ([3]; SC-ADE-LEU-TRP) was “+/−”. For the same molecule, the HIS3 reporter [3, 10] was “+” and the LacZ activity [4] was 1.4 ± 0.1 Miller Units.

In the case of Ac-QGKVEEMDF [N-acetylated nonapeptide corresponding to the last 9 amino acids of Sml1p], the “IC50, in vitro yeast RNR assay” value [5] is reported as roughly 300 µM.

B1: RNR1: GBD (Gal4 DNA binding domain) fusion of the RNR1 ORF in pGBD-C2, two-hybrid construct (protein)
chain: T4 sequence (looked up)
For B1, the LacZ activity [2] was 85 ± 1 Miller Units, the ADE2 reporter ([2]; SC-ADE-LEU-TRP) was “+” and the HIS3 reporter [2, 10] was “+”. The LacZ activity [6] was 2.9 ± 0.5 Miller Units, the ADE2 reporter ([6]; SC-ADE-LEU-TRP) was “+/−” and the HIS3 reporter [6, 10] was “+”. It also gave a LacZ activity [4] of 0.8 ± 0.2 Miller Units.

For Ac-GAFTFNEDF [N-acetylated nonapeptide corresponding to the last 9 amino acids of Rnr2p], the “IC50, in vitro yeast RNR assay” value [5] was 44 µM.

In the case of Ac-KEINFDDDF [N-acetylated nonapeptide corresponding to the last 9 amino acids of Rnr4p], the “IC50, in vitro yeast RNR assay” value [5] is reported as 30 µM.

B2: GBD-Rnr1 two-hybrid fusion (plasmid pWJ731) (other, UniProt P04386 1-147, looked up)
chain: MKLLSSIEQACDICRLKKLKCSKEKPKCAKCLKNNWECRYSPKTKRSPLTRAHLTEVESRLERLEQLFLLIFPREDLDMILKMDSLQDIKALLTGLFVQDNVNKDAVTDRLASVETDMPLTLRQHRISATSSSEESSNKGQRQLTVSMYVYKRDGRKEPVQFDKITARISRLCYGLDPKHIDAVKVTQRIISGVYEGVTTIELDNLAAETCAYMTTVHPDYATLAARIAISNLHKQTTKQFSKVVEDLYRYVNAATGKPAPMISDDVYNIVMENKDKLNSAIVYDRDFQYSYFGFKTLERSYLLRINGQVAERPQHLIMRVALGIHGRDIEAALETYNLMSLKYFTHASPTLFNAGTPKPQMSSCFLVAMKEDSIEGIYDTLKECALISKTAGGIGLHIHNIRSTGSYIAGTNGTSNGLIPMIRVFNNTARYVDQGGNKRPGAFALYLEPWHADIFDFIDIRKNHGKEEIRARDLFPALWIPDLFMKRVEENGTWTLFSPTSAPGLSDCYGDEFEALYTRYEKEGRGKTIKAQKLWYSILEAQTETGTPFVVYKDACNRKSNQKNLGVIKSSNLCCEIVEYSAPDETAVCNLASVALPAFIETSEDGKTSTYNFKKLHEIAKVVTRNLNRVIDRNYYPVEEARKSNMRHRPIALGVQGLADTFMLLRLPFDSEEARLLNIQIFETIYHASMEASCELAQKDGPYETFQGSPASQGILQFDMWDQKPYGMWDWDTLRKDIMKHGVRNSLTMAPMPTASTSQILGYNECFEPVTSNMYSRRVLSGEFQVVNPYLLRDLVDLGIWDEGMKQYLITQNGSIQGLPNVPQELKDLYKTVWEISQKTIINMAADRSVYIDQSHSLNLFLRAPTMGKLTSMHFYGWKKGLKTGMYYLRTQAASAAIQFTIDQKIADQATENVADISNLKRPSYMPSSASYAASDFVPAAVTANATIPSLDSSSEASREASPAPTGSHSLTKGMAELNVQESKVEVPEVPAPTKNEEKAAPIVDDEETEFDIYNSKVIACAIDNPEACEMCSG
With B2 the “two-hybrid LacZ activity” value [7] was 85 Miller Units, the “two-hybrid LacZ activity” value [8] was 2.9 Miller Units and the “two-hybrid LacZ activity” value [9] was 0.8 Miller Units.
